Test results reported in the nanobody polyreactivity screen of Harvey et al. (2022).

Experiment: yeast display, Sf9 membrane polyspecificity reagent, FACS + sequencing; frameworks hold sequencing errors
Summary of the method: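 Polyreactivity labels are assigned by the sorting gate from which each nanobody was recovered. The gates were low and high (top ~1%), set on anti-HA fluorescence for expression and streptavidin fluorescence for reagent binding. Before sorting, galactose-induced (36–48 hours) yeast display cells were stained for 1 hour at 4 °C with 10% biotinylated, detergent-solubilized Sf9 membrane reagent.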

Sequence	polyreactivity (PSR sort gate)
QVQLVESGGGLVQAGGSLRLSCADSGFIFTVNAMGWYRQAPGKERELVAAITSGGNTYYADSVKGRFTISRDNAKNTVYLQMNSLKPEDAAVYYCNAVFYTWSPYGTTVRSYGYWGQGTQVTVSS	high polyreactivity
QVQLVETGGGLVQAGGSLRLSCAPSGSTFNSNVMGWYRQAPGKERELLAAISRSGGNTYYADSVKGRFTISRDNAKNTVYLQMNSLKQEDTAVYYCNVVFFSYYHGAYRGYDYWGQGTQVTVSS	high polyreactivity
QVQLVESGGGLVQAVGSLRLSCAASGRIFGYYDMGWYRQAPGKERELVAAINYDGGSTYYADSVKGRFTISRDNAKNTVYLQMNSLKPDDTAVYYCNKDGRVYLDHDYWGQGTQVTVSS	low polyreactivity
QVQLVESGGGLVQARGSHRISCAASGRTITFNAMGWYRQAPGKQRELVAGIDLSTTSTYYADSVKGRFTISRDNAKNTVYLQMNSLKPEDCAVYYCNAYRNADYDYWGQGTLVTVSS	low polyreactivity
QVQLVESGGGLVQAGGSLRLSCAASGRTSSSNAMGWYRQAPGKERELVATISRTGSTYYADSVKGRFTISRDNAKNTVYLQMNSLKPEDTAVYYCNRYFSEALLHGSSYNRYYYWGQGTQVTVSS	low polyreactivity
QVQLGESGGGLVQAGGSLRLSCAASGFTFRIYTMGWYRQAPGKERELVAAISSRGGSTYYADSVKGRFTISRDNAKNTVYLQMNSLKPEDTAVYYCAASGRVYSSGYDYWGQGTQVTVSS	high polyreactivity
QVQLVESGGGLVQAGGSLRLICAASGRIFRGNAMGWYRQAPGKERELVATISSDGSTNYADSVKGRFTISRDNAKNSVYLQMNSLKPEDTAVYYCAKGFYTITPHGMDYWGQGTQVTVSS	low polyreactivity
QVQLVESGGRLVQARGSLRLSCAASRSTFPFYYMGWYRQAPGKERELVAAHTRRCGSTYYAVSVKGRFTISRDNGKNTFYLQMNSLKPEDTAVYYCAADDYTITIYYILDYWGQGTQVTVSS	low polyreactivity
QVQLVESGGGLVQAGGSLRLSCAASGSTFQFYAMGWYRQAPGKERELVAAIRSSDDSTYYADSVKGRFTSSRDNAKNTVYLQMNSLKPEDTAVYYCAAVQDYYGVWYDYWGQGTQVTVSS	high polyreactivity
QVQLHESAGGLVQAGGSLRLRCSASGYISCDASRGWYRQAPGKERELAASITKGSSTNYADSVKGRFTIRDNAKNTVYLQMNRLKPEDTAVCYCAVTYPYWGDYTYWGQGTQVTVSS	low polyreactivity
QVQLVESGGGLVQAGGSLRLSCAASGFIFYKYAMGWYRQAPGKERELVARISISGGRTYYADSVKGRFPISRDNAKNTVYLQMNSLKPEDTAVYYCATSPWWYGYAAYGMDYWGQGTQVTVSS	low polyreactivity
QVQLVESGGGLVQAGGSLRLSCAASGSTFGGNAMGWYRQAPGKERELVAAITVGGDSPYYADSVKGRYTISRDNAKNTVYLQMNSLKPEDTADYYCAARHYWWYDYWGQGTQVTVSS	low polyreactivity
QVQLVESGGGLVQAGGSLRLTCAASGSTFRYYDMGWYRQAPGKERELVAAITTSGDDTYYADSVKRRFTISRDNAKNSVYLPMNSLKPEDTAVYYCAADGYGGHKYELESWGQGTQVTVSS	low polyreactivity
QVQLVESGGGLVQPGGSLRLSCAASGFTFYPYVMGWYRQAPGKERELVAPINSGGARTYYADSEKGRFTISRDNAKNTVYYQIIRLKPEDTAVYYCAARTVVGGRIYYYWGQGTQVTVSS	low polyreactivity
QVQLVESGGGLVQAGGSLRLSCAASGSIFKQNTKGWYRQAPGKERELVAAISSGGSTYYADSVKGRFTISRDNAKNTVYLQMNSLKPEDTAVYYCAKYYDWDYYLPLEGDYWGQGTQVTVSS	low polyreactivity
QVQLVESGGGLVQAGGSLRLSCAASGNIFYVYLMGWYRQAPGKERELVASITSGASTYYADSVKGRFTISRDNAKNTVYLQMNSLKPEDTAVYYCAAEALGVAGDYSTLYIYDYWGQGTQVTVSS	low polyreactivity
QVQLVESGGGLVQAGGSLRLSCAASGRTFYYYAMGWSRPAPGKERELVAGINSGGSTNYADSVKGRFTISRDNAKNTVYLQMNRLKPEDTAVYYCAVEDLGSEGWGWYKEMDYWGQGTQVTVSS	low polyreactivity
QVQLVESGGGLVQAGGSLRLSCAASGFIFYSKAMGWYRQAPGKERELVAAISWGGGRTYYADSVKGRFTISRDNAKNTVYLQMNSLKPEDTAVYYCAAPWRRIGYSTRGYTLYDYWGQGTQVTVSS	high polyreactivity
QVQLVESGGGLVQAGGSLRLSCAASGRIDVSNAMGWYRQAPGKERELVAAITRTGASTYYADSVKGRCTISRDNAKNNVYVQMNSLKPEDSAVYYSDDVWGWPYWVYRYDYWGQGTQVTVSS	high polyreactivity
QVQLVESGGGLVQAGGSLRLSCAASGFTFHSYAMGWYRQAPGKDRELVAAISRGGGNTYYADSVKGRFTISRDNAKNTVYLQMNSLKPEDTAVYYCAADAIYNFEMDYWGQGTQVTVSS	high polyreactivity
QVQLVESGGGLVQAGGSLRLSCAASGSIFNYYGMGWYRQAPGKERELVAAISYSGGSTYYADSVKGRFTISRDNAKNTVYLQMNSLKPEDTAVYYCAKRYYPVIRYHSTYDSWGQGTQVTVSS	low polyreactivity
QVQLVESGGGLVQAGGSLRLSCAASGLIFAKYAMGWYRQAPGKERELVAGITSGGGTYYADSVKGRFTISRDNAKNTVYLQMNSLKPEDTAVYYCAVGREYFRWIRYDYDYWGQGTQVTVSS	low polyreactivity

Sequence	polyreactivity (PSR sort gate)
QVQLVESGGGLVQAGGSLRLSCAASGFTFDEYAMGWYRQAPGKEREFVATISSSGGSTYYADSVKGRFTISRDNAKNTVYLQMNSLKPEDTAVYYCAADVRRLYTSGVDYWWHSEYDYWGQGTQVTLSS	low polyreactivity
QVQLVESGGGLVQAGGSLRLSCAASGSTFPANAMGWYRQAPGKERELVAAISSVGSTNYADSVRGRFTLSRDNAKNTVYLQMNSLKPEDTAVYYCATQPTWYTVGDLDYWGQGTQVTVSS	low polyreactivity
QVQIVESGGGLVQAGGSLRLSCAASGRTFKGYAMAFYRQAPGKERELVAGISRGAGRTYYADSVKGRFTISRDNAKNTVYLQMNSLKPEDTAVYYCAAVPSYNSTSPFYYWGQGTQVTVSS	high polyreactivity
QVQLVESGGGLVQAGGSLRLSCAASGRILRYNAMGWYRQAPGKERELVASISGNGGSTYYADSVKGRFTISRDNAKNTVYVQMNSLKPEDTAVYYCNKYYYSSRGQKEYDYWGQGTQVTVSS	low polyreactivity
QVQLVESGGGLVQAGGSLRLSCAASGRIFYVYAMGRYRQAPGKERELVAAINWSGDSTYYADSVKGRFTISRDNAKNTVYLQLNSLKPEDTAVYYCARARPTGYNYWGQGTQVTVSS	high polyreactivity
QVQLVESGGGLVQAGGSLRLSCAAYGITFYWYAMGRYRQAPGKEWELVAGISQSGSRTYYADSVKGRFTISRDNAKNTVYLQMNSLKPEDTAVYYCAARVRWSPTRTFEYWGQGTQVTVSS	high polyreactivity
QVQLVESGGGLVQAGGSLRLSCAASGSTFLIKAMGWYRQAPGKEREVVASIRYRGATTYADSVKGRFTISRDNAKNTVYLQLKSLKPEDTAVYYCAAVHWRYQYSLRYDYWGQGTQVTVSW	high polyreactivity
QVQLVESGGGLVQAGGSLRLSCAASGSIFGNNAMGWYRQAPGKERELVAAITSGGSTTYADSVKGRFTISRDNAKNTVYLLMNSLKPEDTAVYYCAATPVWGFVWEYNYWGQGTQVTVSS	low polyreactivity
QVQLEESGGGLVQAGGSLRLSCAASGNIFVSYAMGWYRQAPGKERELVAAISKSGGSTYYADSVKGRFTISRDNAKNTVYLQMNSLKPEDTAVYYCAARWYNRVKYQKYNYWGQGTQVTVSS	high polyreactivity
QVQLVESGGGLDQAGGSLRLSCAASGSTFDGYAMGWYRRAPGKERELVAAITSSDGSTYYADSVKGRFTISRDNAKHTVYLQMYSLKPEDTAVYYCAAAPDWKDSLPPDMDYWGQGTQVSVSS	low polyreactivity
QVQLVESGGGLVQAGGSLRLSSAASGSIFRVNAMGWYRQAPGKERELVAAISTSGGNTYYADSVKGRFTISRDNAKNTVYLQMNSLKPEDTAVYYCNAPWSSFNGFTGRYDYWGQGTQVTVSS	low polyreactivity
QVQLVESGGGLVQAGGSLRLSCAASGFTIWAYTMGCYRQAPGKEREFVADITSRGGSTFYADSVKGRFTISRDNAKNTVYLQMNSLKPEDTAVDYCAAEGFDTRMYYWGQGTQVTVSS	high polyreactivity
QVQLVESGGGLVQAGGILRLSCAASGRTIDHYAKGSYRKAPGKERELVAAISTTGGSTYYADSVKGRFTISRDNAKNTVYLQMNSLKPADTAVYYCAARGLRTGGYWGQGTQVTVSS	high polyreactivity
QVQLVESWGGLVQAGGSHRLSCDASGRIFTRNAMGWYRQAHGKERELVAAISYDCGSTYYADSVKVRFTISRDNAKNTVYLQMNSLKPEDTAVYYCATDLYLHGYEYWGQGTQVTVSS	high polyreactivity
QVQLVESGGGLVQAGGSLRLICAASGSKFSSYCMGWYRQATGQEMELVAAISKRGGSTYYADTVKGRFTISRDNAKNTVYLQMNSLKPEDTAVYYCAAAVSIQGYSTLFDYWGQGTQVTVSS	high polyreactivity
QVQLVESGGGLVQAGGSLRLRCAASGSTFWGYAMGWYRQAPGKERELVASITWRGGSTYADSVKGRFTISRDNAKNTVYLQMNSLKPEDTAVYYCNALPYRYRRYDYWGQGTQVTVSS	low polyreactivity
QVQLVESGGGLVQAGVSLRLSCAASGLTLRPYTMGWYRQAPGKERELVAAITGRGGRTHYADSVKGRFTISRDNAKNTVYLQMNSLKPEDTAVYYCAAAARVYVKVGYNYWGQGTQVTVSS	high polyreactivity
QVQLVESGGGLVQAGGSLRLSCAASGSISWYYAMGWYRQAPGKERELVAAISDSGGDTYYADSVKGRFTISRDNAKNTVYLQMNSLKPEDTAVYYCAAQYRGSYRTTYDYWGQGTQVTVSS	low polyreactivity
QVQLVESGGGLVQAGGSLRLSCAASGSTFWYYDMGWYRQAPGKERELVAAITSGGRTNYADSVKGRFTISRDNAKNTVYLQMNSLKPEDTAVYYCNAVSYGKYVFQDGDYWGQGTQVTVSS	high polyreactivity
QVQLVESGGGLVQAGGSLRLSCAASGRIFKLYAMGWYRQAPGKERELGAAISTSAGSTNYADSEKGRFTISRDNAKNTVYLQMNSLKPEDPAVYYCAVAGVSTYYTYYYWGQGTQVTVSS	low polyreactivity
QVQLVESGGGLVQAGGSLRLICDASGFTFSPNAMGWYRQAPGKERELVAAIDWSGDRTYYADSVKGRFTISRDNAKNTVYLQMNSLKPEDTAVYYCNDVRRSPGDYSYYYWGQGTQVTVSS	low polyreactivity
